Values belong to the molecule of their own block, whether it stands above or below them.
How the values were obtained:
[1] = target: meprin α R372A (human (from the printed accession Q16819)) (UniProt Q16819); assay: electron microscopy; variants imaged, concentration not stated (below the high concentration of 3 µM); N counts subunits
[2] = target: meprin α R372A (human (from the printed accession Q16819)) (UniProt Q16819); assay: mass photometry; single-molecule mass measurement, 20 °C; low concentration (10 nM in the results, roughly 2-5 nM in the methods); association of homodimers through the helical interface; N counts subunits
[3] = target: meprin α R372T (human (from the printed accession Q16819)) (UniProt Q16819); assay: electron microscopy; variants imaged, concentration not stated (below the high concentration of 3 µM); N counts subunits
[4] = target: meprin α R372T (human (from the printed accession Q16819)) (UniProt Q16819); assay: MALDI-TOF mass spectrometry; linear positive mode, DHAP matrix; shows only covalently (disulphide) linked species; N counts subunits
[5] = target: meprin α wild type (V22-S600 construct; zymogen or activated form not told for the experiment) (human (from the printed accession Q16819)) (UniProt Q16819); assay: as above
[6] = target: the molecule itself; assay: cryo-EM structure; meprin α alone (zymogen or active form), helical filament of covalent homodimers; 30 mM Tris, 100 mM NaCl, pH 7.4; pseudo single-particle analysis of filament segments

Molecule: meprin α R372A (from UniProt Q16819 22-600) (enzyme)
stoichiometry N [1]: 2 | stoichiometry N [2]: 4

B1: pro-meprin α (V22-S600), wild type zymogen (enzyme, UniProt Q16819 22-600, looked up)
chain: VPIKYLPEENVHDADFGEQKDISEINLAAGLDLFQGDILLQKSRNGLRDPNTRWTFPIPYILADNLGLNAKGAILYAFEMFRLKSCVDFKPYEGESSYIIFQQFDGCWSEVGDQHVGQNISIGQGCAYKAIIEHEILHALGFYHEQSRTDRDDYVNIWWDQILSGYQHNFDTYDDSLITDLNTPYDYESLMHYQPFSFNKNASVPTITAKIPEFNSIIGQRLDFSAIDLERLNRMYNCTTTHTLLDHCTFEKANICGMIQGTRDDTDWAHQDSAQAGEVDHTLLGQCTGAGYFMQFSTSSGSAEEAALLESRILYPKRKQQCLQFFYKMTGSPSDRLVVWVRRDDSTGNVRKLVKVQTFQGDDDHNWKIAHVVLKEEQKFRYLFQGTKGDPQNSTGGIYLDDITLTETPCPTGVWTVRNFSQVLENTSKGDKLQSPRFYNSEGYGFGVTLYPNSRESSGYLRLAFHVCSGENDAILEWPVENRQVIITILDQEPDVRNRMSSSMVFTTSKSHTSPAINDTVIWDRPSRVGTYHTDCNCFRSIDLGWSGFISHQMLKRRSFLKNDDLIIFVDFEDITHLS
modifications: N-linked glycosylations
notes: meprin α, UniProt Q16819, residues V22-S600 (native signal peptide omitted, stop codon after S600; lacks the EGF-like and transmembrane regions); pro-peptide still on the chain; Disulphide-linked (C308) homodimer; the homodimers join non-covalently into a helical filament; Secreted through the BiP signal peptide of pMT/BiP/V5; also called latent state; meprin α ectodomain; source: Schneider-2 …
binding result [6]: binds

Next, values leading:

stoichiometry N [3]: 2 | stoichiometry N [4]: 2
Molecule: meprin α R372T (from UniProt Q16819 22-600) (enzyme)

stoichiometry N [5]: 2
Molecule: meprin α wild type (V22-S600 construct; zymogen or activated form not told for the experiment) (from UniProt Q16819 22-600) (enzyme)

— article PMC9581967, “Helical ultrastructure of the metalloprotease meprin α in complex with a small molecule inhibitor” (Nature Communications, 2022)
